Assay: yeast display, Sf9 membrane polyspecificity reagent, FACS + sequencing; frameworks hold sequencing errors
In short: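 Sorting gates, low and high (top ~1%), were placed on anti-HA fluorescence to track expression and on streptavidin fluorescence to track reagent binding. A clone's polyreactivity label is taken from the gate it came out of. The reagent was 10% biotinylated, detergent-solubilized Sf9 membrane, applied for 1 hour at 4 °C to galactose-induced yeast display cells.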

Row | Sequence | polyreactivity (PSR sort gate)
1 | QVQRVESGGGLVQAGGSLRLSCAASGTIFYHNAMGWYRQAPGIERELVAAITGSGGSTYYADSVKGRFTISRDNAKNTVYLQMNSLKPEDTAVYYCAADGYTKWRISWGYDYWGQGTQVTVCS | low polyreactivity
2 | QVQLVESGGGLVQAGGSLRLICAASGSIFWAYAMGWYRQAPGKERELVAAISSSGGRTYYADSVKGRFTISRDNAKNTVYFQMNSLNPEDTAVYYCAARSYSGYSPTFDYWGQGTQVTVSS | high polyreactivity
3 | QVQLVESGVGLVQAGGRLRLSCAASGLTLHRYTMGWYRQAPGKERELVAVITYGGGNTYYADSVKGRFTISRDNAKNTVYLQLNCLKPEDTAVYYCAARDPPFYWYDYWGQGTQVTVSS | low polyreactivity
4 | QVQLVESGGGLVQAGGSLRLSCAASGRIFYAYAMGWYRPAPGNERELVAAITISASSTYYADSVKGRFTISRDNAKNTVYLQMNSLKPEDTAVSYCAAAYRRPWWYSYRYGYWGQGTQVTVSS | high polyreactivity
5 | QVQLVESGGGLVQAGVSLLLTCAASGRISFRYAMVWYRQAPGKERELVAAINRGGITNYADSVKGRFTISRDNAKNTVYLKMNSLKKEDTAVYYCAARYASPRYKSKMDYWGQGTQVTVSS | high polyreactivity
6 | QVQLVESGGGLVQAGGSLRLSCAASGRIFTWNAMGWYRQAPGKERELVASISRSGTSTYYADSVKGRFTISRDNAKNTVYLQMNSLKPEDTAVYYCNARTIYYYFRLSTPYNYWGQGTQVTVSS | high polyreactivity
7 | QVKLVESGGGLVQAGGSLRLSCAASGLTYLYTMGWSRQAPGKERELVAAITRSGRTYYADSVKGRFTISRDNAKNTVYLQMNSLKPEDTAVYYCATRTGYQQPDGRYYYWGQGTQVTVSS | high polyreactivity
8 | QVQLVESGGGLVQAGGSLRLSCAASGRTFPLNAMGWYRQAPGKERELVASITKSTGNTRYADSVKGRFTISRDNAKNTVYLQMNSLKPEDTAVYYCAARSYRDRYYWGQGTQVTVSS | high polyreactivity
9 | QVQLVESGGGLVQAGVSHRLSCAASGSIYYYYAMGWYRQAPGKESELVAGITTSGGSTYYAESVKVRFTISRDNAKNTVYLQMISLKPEDNAVYYCAAYDYISSTYFLDDYWGQGTQVTVSS | low polyreactivity
10 | QLQLVESGGGLVQAGGSLRLSCAASASTFYRYAMCCYIQAPGKERELVAGISSSGGSTYYADSVKGRFTISRDNAKNTVYLQMNSLKPEDTAVYYCAAVGQWGYGYWGQGTQVTVSS | high polyreactivity
11 | QVQLVESGGGLVQAGGSLRLSCADSGRIIQYNAMGWYRQAPGKERDLDAAISYRGGSTYYADSVKGRYTISRDNAKNTVYLQMNSLKPEDTAVYYCAVEYPVYYYVEYDYWGQGTQVTVSS | high polyreactivity
12 | QVQLVESGGGLVQAGGSLRLSCAASGRIFDTNAMGWYRQAPGKERELVAAITYSGGSTYYADSVKGRFTISRDNAKNTVYLQMNSLKPEDTAVYYCAAGPYDPRYDYWGQGTQVTVSS | high polyreactivity
13 | QVQLVESGGGLVQAGGSLRLSCAASGRIYGINVMGRYRQAPGKEMELVAAISYRTGSTYYADSVKGRFTISRDNAKNTVYLQMNSLKPEDTEVYYCAVRRPSSYSYGEDYWGQGTQVTVSS | high polyreactivity
14 | QVQLVESGAGLVQAGGSLRLSCASSGYIFDWYAMGWYRQAHGKERELGAAISGRGGSTYYADSVKGRFTISRDNSKNTVYLQMYSLKPEYTAVYYCNAALSPWGYNYWGQGTQVTVSS | high polyreactivity
15 | QVQLVESGGGLVQAGGSLRLSCAASGMTFWSYAMGWYRQAPGKDRELVAAITIGGTTYYADSVKGRFTISRDNAKNTVYLQMNSLKPEDTAVYYCAVDSTDQAPPTYDYWGQGTQVTVSS | low polyreactivity
16 | QVQLVESGGGLVQAGGSLRLSCAASGRIFTRNTMGWYRQAPGKERELVAAISGRGGSTYYADSVKGRFTISRDNAKNTVYLQMNSLKPEDTAVYYCAADGVYRGGYDYWGQVTQVTVSS | high polyreactivity
17 | QVQLVESGGGLVQAGGSLRLSCAASGSSKLMLWDGIDRRLGKKGSWLPLFVLVVLRNYSDSVKGRFTISRDNAKNTVYLQMNSLKPEDTAVYYCAATPIGSGGWGDYWGQGTQVTVSS | low polyreactivity
18 | QVQLVESGGGLVQAGGSLRLSCAASGFTFYSYAMGWYRQAPGKERELVAGISRSGGSTYYADSVKGRFTISRDNAKNTVYLQMNSLKPEDTAVYYCNVRLRKKIQNSKYDYWGQGTQVTVSS | high polyreactivity
19 | KLQLVESGGGLDQAGGSLRLSCAASGSIFVAYAMGSYRQAPGKERELVAAISKSGGSKYYADSVKGRFTISRDNAKNTVFLQMNSLKPEDTAVYYCAAGSDDFSRFGYWGQGTQVTVSS | low polyreactivity
20 | QVQLVESGGGLVQAGGSLRLSCAASGSIFRWNAMGWYRQSPGKERELLAAIDSGGSTYADSVKGRFTISRYNAKNTVYLQMYSLKPEDTAVYYCAAEIPDEWPYDYWGQGTQVTVSS | low polyreactivity
21 | QVQLVESGGGLVQAGGSLRLSCAASGSTFPRNAMGWYRQAPGKERELVAAISYSGGRTYYADSVKGRLRISRDNAKNTVYLQMNSLKPDDTAVYYCAASPGVGDSRYYYWGQGTQVTVSS | high polyreactivity
22 | QLQLVESGGGLVQAGGSLRLSCAASGYTFKWYAMGCYRQAPGKERELVAAIRGSGGSSYYAVSVKGRFTISRDNAKNTVYLQMNSLKPEDTAGYYCNAVLRWAQNPRIFLGYDYWGQGTQVTVSS | high polyreactivity

Row | Sequence | polyreactivity (PSR sort gate)
23 | QVQLVESGGGLVQAGGSLRLSCAASGSIFQPYAMGWYRQAPGKERELVAAISSSGGSTTYADSVKGRFTISRDNAKNTVYLQMNSLKPEDTAVYYCAADSADDMGYWGQGTQVTVSS | low polyreactivity
24 | QVQLVESGGGLVQAGGSLRLSCAASGIIFRRYAMGWYRQAPGKERELVAVISSGGSTNYADSVKGRFTISRDNAKNTVYLQMYSLKPEDTADYYCAAPSQSRGYYYWGQGTQVTVSS | high polyreactivity
25 | QVQLVESGGGLVQAGGRLRLSCAASGRTCGYYTMGWYRQAPGKERELVATIRWSGGSTYADSVKGRFTISRDNAKNTVYLQMNSLKPEDTAVYYCAARNRIKWGQGTQVTVSS | high polyreactivity
26 | QVQLVESGGGLGQAGGSLRLSFAASGRTFWYNAMGWYRQAPGKERELVAAISNGGSTNYADSVKGRFTISRDYATNTVYLQMNSVKPEDTAVDYCNAGLYRSPYPGRLGSRYDYWGQGTQVTVSS | high polyreactivity
27 | QVQLVESGGGLVQAGGSLRLSCAASGRIFVHNAMGWYRQAPGKERELVAAISSGGSTYYADSVKGRFTISRDNAKNTVYLQMNSLKPEDTAVYYCAKYAYYKKYDYWGQGTQVTVSS | high polyreactivity
28 | HVQLVESGGGLVQAGGSLRLSCAASGRTFYRYAKGWYRQAPGKEREFVAAISRSGGSTYYAVSVKGRFTISRDNAKNTVYLQMNSLKPEDTAVFYSNKYYWYPYGRAHDYGYWGQGTQVTVSS | high polyreactivity
29 | QVQLVESGGGLVQAGGSLRLSCAASGFTFDTNAMGWYRQAPGKERELVAAISWGGDTTYYADSVKGRFTISRDNAKNTVYLQMNSLKTEDTAVYYCNVYWYDWWGYDYWGQGTQVTVSS | high polyreactivity
30 | QVQLVESGGGLVQAGGSLRLSCAASGRILYGYAMGWYRQAPGKERELVASITWSGGSTYADSVKGRFTISRDNAKNTVYLQMNSLKPEDTAVYYCATRRGPKWQWLTYGYWGQGTQVTVSS | low polyreactivity
31 | QDQLVDSGGGLVQAGGSLRLSSAASGFSYGGYAMGWYRQAPGKERELVAAISSGGGTTYADSVKGRFTISRDNAKYTVYLQMNSLKPEDTAVYYCAAVTRDYRNDRRRQRCYYWGQGTQVTVSS | high polyreactivity
32 | QVQLVESGGGLVQAGGSLRLSCAASGSTFTIYAYGWYRQAPGKERELVAAITRGGGRTYYADSVKGRFTISRDNAKNTVFLQMNSLKPEVTAVYYCAAYYAHEFDYRGQGTQVTVSS | high polyreactivity
33 | QVQLVESGGGLVQAGGSLRLICAASGSTFSAYVMGWYRQAPGKERKLVAAITRSGVSTYYADSVKGRFTISRDNAKNTVYLQMNSLKPEDTAVYYCARRAKGAYWNEYNYWGQGTQVTVSS | high polyreactivity
34 | QVQLVDSGGGLVQAGGSLRVSCAASGIIFYYNAMGWYRQAPGKEREFVASISSRGGSTYYADSVKGRFTISRDNSKNTVYLQMNSLKPEDTAVYYCAAAFDWRRQRYNYWGQGTQVTVTS | high polyreactivity
35 | QVQLVESGGGLVQAGGSLRLSCAASGRIFDQYTMGWYRQAPGKERELVAAIRWSDGSTYYADSVKGRFTISRDNAKNTVYLQMNSLKPEDTAVYYCAADTRTSYYNDDYDYWGQGTQVTVSS | low polyreactivity
36 | QGQLVESGGALVQAGGTLRLSCAASGIIFSGNGMGWYRQAPGNVRELVAAITAGAGTNYADSVKGRFTISRDNAKNSVYLQMHSLKPEDPGVYYCAVDGRSVPAWWPRFDYWGQGTQVTVSS | low polyreactivity
37 | QVQLVESGGGLDQPGGSLRLTWAASGSTFYLYTMGWYRQAHGKERELVARISSSGSTNYADSVKGRFTISRDNAKNAVYLQMNSLKPEDTAVYYCNKDWIYRGYDYWGQATQVTVSS | high polyreactivity
38 | QVQLVESGGGLVQAGGSLRLSCAASGSTFATYAMGWYRQAPGKERELVAAITRSGGITYYADSVKGRFTISRDNAKNTVYLQMNSLKPEDNAVYYCAKQYKWYGSRFYYWGQGTQVTVSS | high polyreactivity
39 | QVQLVESGGGLVQAGGSLRLSCAASGRTFSPNAMGWYRQAPGKERELVASITAIGSRTYYADSVKGRFTISRDKAKNTVYLQMNSLKPEDTAVYYCAKDDELYGTKMYSWGQGTQVTVSS | low polyreactivity
40 | QVQLVESGGGLVQAGGSLRLSCAASGSIFRIYAMGWYRQAPGKERELVAAISRGSTRTYYADSVKGRFTISRDNAKNTVYLQMNSLKPEDTAVYYCAKRGISPYGYWGQGTQVTVSS | high polyreactivity
41 | QVQLVESGGGLVQAGGSLRLSCAASGFTFFRNAIGWYRQAPGKERELVAAISGSGGSTYYADSVKGRFTISRDNAKNTVYLQMNSLKPEDTAVYYCAARTSYYVYRHPSGRYDYWGQGTQVTVSS | low polyreactivity
42 | QVQLVESGGGLVQAGGSLRLSCAASGRIFDENAMGWYRQAPGKERELVATISSSGVSTSYADSVKGRFTISRDNAKNTVYLQMNSLKPEDTAVYYCNAGYRRRYKFDYWGQGTQVTVSS | low polyreactivity
43 | QVQLVESGGGLVQARGSLRLTCAASGRNFYLNAMGWYRQAPGKERELVAAITWSGGRTYYADSVKGRFTISRDNAKNTVYLQMYSLKPEDTAFYYCAAVPRPGPNTVLTPYVYWGQGTQVTVSS | high polyreactivity

— the nanobody polyreactivity screen of Harvey et al. (2022)
